Assay results as given in the supplement of paper PMC9112550, “Optimization of the antimicrobial peptide Bac7 by deep mutational scanning” (BMC Biology, 2022).

Test system: Escherichia coli TOP10
Assay: shrunken log2 fold change of peptide-encoding DNA abundance (4.5 h post-induction vs induction); higher = less antimicrobial activity (less host growth inhibition)
Conditions: time post-induction: 4.5 h; library: site-saturation at positions 5, 18, 19, 20
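Also: peptides expressed intracellularly from a pBAD plasmid library in pooled LB shake-flask culture, induced with 0.3% L-arabinose, DNA abundance read by NGS, three biological replicates, DESeq2 with apeglm shrinkage.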

Sequence | shrunken log2 fold change
RRIRARPPRLPRPRPRPDGRPRP | 0.197
RRIRARPPRLPRPRPRPDIDPRP | 0.462
RRIRARPPRLPRPRPRPDINPRP | 0.0789
RRIRARPPRLPRPRPRPDIPPRP | -0.192
RRIRARPPRLPRPRPRPDIQPRP | -0.149
RRIRARPPRLPRPRPRPDIWPRP | 0.69
RRIRARPPRLPRPRPRPDKPPRP | 0.865
RRIRARPPRLPRPRPRPDMDPRP | 0.3
RRIRARPPRLPRPRPRPDMYPRP | -0.0823
RRIRARPPRLPRPRPRPDPVPRP | 0.688
RRIRARPPRLPRPRPRPDQQPRP | -0.0359
RRIRARPPRLPRPRPRPDSCPRP | 0.156
RRIRARPPRLPRPRPRPDSEPRP | 0.481
RRIRARPPRLPRPRPRPDSMPRP | 0.02
RRIRARPPRLPRPRPRPDSNPRP | 0.179
RRIRARPPRLPRPRPRPDVCPRP | -0.0214
RRIRARPPRLPRPRPRPDWFPRP | 0.408
RRIRARPPRLPRPRPRPDWGPRP | 0.272
RRIRARPPRLPRPRPRPDYPPRP | -0.0306
RRIRARPPRLPRPRPRPEAHPRP | 0.0341
RRIRARPPRLPRPRPRPEAKPRP | 0.73
RRIRARPPRLPRPRPRPECEPRP | 0.0705
RRIRARPPRLPRPRPRPECIPRP | 0.781
RRIRARPPRLPRPRPRPEDIPRP | 0.473
RRIRARPPRLPRPRPRPEDLPRP | 0.0217
RRIRARPPRLPRPRPRPEFCPRP | 0.83
RRIRARPPRLPRPRPRPEHLPRP | 0.108
RRIRARPPRLPRPRPRPEIRPRP | 0.132

Sequence | shrunken log2 fold change
RRIRARPPRLPRPRPRPEKKPRP | 0.275
RRIRARPPRLPRPRPRPELDPRP | 1.78
RRIRARPPRLPRPRPRPEMVPRP | 0.00546
RRIRARPPRLPRPRPRPENVPRP | 0.251
RRIRARPPRLPRPRPRPEQCPRP | 0.42
RRIRARPPRLPRPRPRPEQNPRP | 0.928
RRIRARPPRLPRPRPRPEQQPRP | 0.785
RRIRARPPRLPRPRPRPESEPRP | 3.51
RRIRARPPRLPRPRPRPESVPRP | 0.886
RRIRARPPRLPRPRPRPETAPRP | 0.236
RRIRARPPRLPRPRPRPEVIPRP | 0.349
RRIRARPPRLPRPRPRPEVRPRP | 0.623
RRIRARPPRLPRPRPRPEWIPRP | 0.129
RRIRARPPRLPRPRPRPEWPPRP | 0.591
RRIRARPPRLPRPRPRPEWVPRP | 0.775
RRIRARPPRLPRPRPRPEWWPRP | 0.945
RRIRARPPRLPRPRPRPEYDPRP | 0.695
RRIRARPPRLPRPRPRPFFGPRP | 0.349
RRIRARPPRLPRPRPRPFFNPRP | -0.0671
RRIRARPPRLPRPRPRPFFPPRP | 0.527
RRIRARPPRLPRPRPRPFGNPRP | -0.148
RRIRARPPRLPRPRPRPFGVPRP | 0.165
RRIRARPPRLPRPRPRPFHIPRP | -0.906
RRIRARPPRLPRPRPRPFKEPRP | -0.0239
RRIRARPPRLPRPRPRPFKLPRP | -0.39
RRIRARPPRLPRPRPRPFLVPRP | -0.205
RRIRARPPRLPRPRPRPFLYPRP | -0.0961
